We go through one substance from patent publication US7129072.

In this experiment the target is FGFR1 D2-D3 (residues 142-365 of human FGFR1) (human) (UniProt P11362). In words: calculated from the X-ray crystal structure.
FGFR1 D2-D3 (residues 142-365 of human FGFR1) (human), sequence (P11362 149-359 limits assumed): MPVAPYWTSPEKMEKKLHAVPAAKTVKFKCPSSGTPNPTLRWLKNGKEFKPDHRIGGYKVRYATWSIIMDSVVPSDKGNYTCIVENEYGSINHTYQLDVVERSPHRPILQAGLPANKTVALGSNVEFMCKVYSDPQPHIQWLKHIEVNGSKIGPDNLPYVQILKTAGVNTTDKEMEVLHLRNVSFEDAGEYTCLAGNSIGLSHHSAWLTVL

As to “FGF1 (from UniProt P05230 21-155) (ligand)”, the total accessible surface area buried in the complex is 2200 Å^2.
